The results in this text go back to patent publication CN113621064A (FUZHOU MAIXIN BIOTECHNOLOGY DEV CO LTD, dated 2021).

In this assay the target is T1, CD117蛋白 (c-kit, 干细胞因子受体) (human, UniProt P10721 26-976).
T1 construct: whole, on cells; Endogenous antigen in tissue sections (immunohistochemistry); The abstract names it as human; also called 人CD117抗原
Description: immunohistochemistry on a tissue array of 28 gastrointestinal stromal tumours.

T1 sequence (P10721 26-976): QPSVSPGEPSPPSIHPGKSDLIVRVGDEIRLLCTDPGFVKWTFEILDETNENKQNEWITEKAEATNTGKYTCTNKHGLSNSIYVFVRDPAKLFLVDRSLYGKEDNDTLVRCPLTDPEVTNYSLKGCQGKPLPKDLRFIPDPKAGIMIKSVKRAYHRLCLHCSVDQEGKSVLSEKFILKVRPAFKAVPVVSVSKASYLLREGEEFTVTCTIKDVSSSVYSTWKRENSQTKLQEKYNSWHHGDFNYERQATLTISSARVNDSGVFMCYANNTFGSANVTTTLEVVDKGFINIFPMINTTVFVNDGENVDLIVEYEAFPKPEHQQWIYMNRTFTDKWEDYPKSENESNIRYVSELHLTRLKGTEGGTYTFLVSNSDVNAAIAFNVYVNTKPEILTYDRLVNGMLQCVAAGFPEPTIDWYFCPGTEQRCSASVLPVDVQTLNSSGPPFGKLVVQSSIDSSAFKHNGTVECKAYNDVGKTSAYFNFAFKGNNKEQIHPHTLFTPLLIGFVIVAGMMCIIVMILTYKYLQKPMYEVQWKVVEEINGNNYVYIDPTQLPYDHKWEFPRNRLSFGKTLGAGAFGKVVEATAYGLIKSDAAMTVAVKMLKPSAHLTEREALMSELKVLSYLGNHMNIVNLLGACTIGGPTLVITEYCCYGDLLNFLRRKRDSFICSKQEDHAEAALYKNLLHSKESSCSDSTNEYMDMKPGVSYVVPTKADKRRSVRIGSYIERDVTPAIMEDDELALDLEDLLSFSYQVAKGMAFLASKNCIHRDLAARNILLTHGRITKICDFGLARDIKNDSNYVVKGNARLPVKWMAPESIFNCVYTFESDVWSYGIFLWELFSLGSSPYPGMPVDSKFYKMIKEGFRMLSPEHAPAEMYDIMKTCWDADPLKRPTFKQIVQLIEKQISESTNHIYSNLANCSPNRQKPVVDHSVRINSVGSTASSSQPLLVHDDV

B1: 抗CD117蛋白单克隆抗体 (小鼠杂交瘤细胞株33G5分泌, CGMCC NO 21977) (antibody, V domains shown)
VH: EVKLQESGPSLVQPGGSMRLSCVASGFIFSNYWINWVRQSPEMGLEWIAQVKLKSDNYATHYAGSVKGRFTISRDDSKSSVYLQMNNLRPEDTGIYFCLGRLDVWGAGTTVTVSS
VL: DIMLTQSPLSLSVTIGQPASISCKSSQSLLYTDGKTYLNWLLQRPGQSPKLLIYLVSKLDSGVPDRFSGSGSGTDFTLKISRVEAEDLGVYYCLQATHFPQTFGGGTKLEIK
notes: also called CD117(33G5); 33G5分泌的CD117抗体
Regarding B1, the binding result was “binds”.
